Assay results as given in paper PMC8439582 (Nature structural & molecular biology, 2019).
Like-named read-outs stand apart in the source and are kept apart here. Values belong to the binder of their own block, whether it stands above or below them.

B1: Tom40 with a C-terminal Strep-tag (overexpressed, wild type) (natural protein, S. cerevisiae, UniProt P23644 1-387, looked up)
chain: MSAPTPLAEASQIPTIPALSPLTAKQSKGNFFSSNPISSFVVDTYKQLHSHRQSLELVNPGTVENLNKEVSRDVFLSQYFFTGLRADLNKAFSMNPAFQTSHTFSIGSQALPKYAFSALFANDNLFAQGNIDNDLSVSGRLNYGWDKKNISKVNLQISDGQPTMCQLEQDYQASDFSVNVKTLNPSFSEKGEFTGVAVASFLQSVTPQLALGLETLYSRTDGSAPGDAGVSYLTRYVSKKQDWIFSGQLQANGALIASLWRKVAQNVEAGIETTLQAGMVPITDPLMGTPIGIQPTVEGSTTIGAKYEYRQSVYRGTLDSNGKVACFLERKVLPTLSVLFCGEIDHFKNDTKIGCGLQFETAGNQELLMLQQGLDADGNPLQALPQL
B6: Tom22 with a C-terminal His-tag (natural protein, S. cerevisiae, UniProt P49334 1-152, looked up)
chain: MVELTEIKDDVVQLDEPQFSRNQAIVEEKASATNNDVVDDEDDSDSDFEDEFDENETLLDRIVALKDIVPPGKRQTISNFFGFTSSFVRNAFTKSGNLAWTLTTTALLLGVPLSLSILAEQQLIEMEKTFDLQSDANNILAQGEKDAAATAN

What was measured:
cryo-EM structure = target: the molecule itself; test: cryo-EM structure
SEC = target: the molecule itself; test: SEC
[1] = target: B6; test: cryo-EM structure
[2] = target: B1; test: cryo-EM structure
[3] = target: B1; test: cryo-EM structure; remark: listed apart in the source

Binder: B1
binding result (cryo-EM structure): binds

B2: core TOM complex from S. cerevisiae (Tom40, Tom22, Tom5, Tom6, Tom7) (complex)
chain 1: MSAPTPLAEASQIPTIPALSPLTAKQSKGNFFSSNPISSFVVDTYKQLHSHRQSLELVNPGTVENLNKEVSRDVFLSQYFFTGLRADLNKAFSMNPAFQTSHTFSIGSQALPKYAFSALFANDNLFAQGNIDNDLSVSGRLNYGWDKKNISKVNLQISDGQPTMCQLEQDYQASDFSVNVKTLNPSFSEKGEFTGVAVASFLQSVTPQLALGLETLYSRTDGSAPGDAGVSYLTRYVSKKQDWIFSGQLQANGALIASLWRKVAQNVEAGIETTLQAGMVPITDPLMGTPIGIQPTVEGSTTIGAKYEYRQSVYRGTLDSNGKVACFLERKVLPTLSVLFCGEIDHFKNDTKIGCGLQFETAGNQELLMLQQGLDADGNPLQALPQL
chain 2: MVELTEIKDDVVQLDEPQFSRNQAIVEEKASATNNDVVDDEDDSDSDFEDEFDENETLLDRIVALKDIVPPGKRQTISNFFGFTSSFVRNAFTKSGNLAWTLTTTALLLGVPLSLSILAEQQLIEMEKTFDLQSDANNILAQGEKDAAATAN
chain 3: MFGLPQQEVSEEEKRAHQEQTEKTLKQAAYVAAFLWVSPMIWHLVKKQWK
chain 4: MDGMFAMPGAAAGAASPQQPKSRFQAFKESPLYTIALNGAFFVAGVAFIQSPLMDMLAPQL
chain 5: MSFLPSFILSDESKERISKILTLTHNVAHYGWIPFVLYLGWAHTSNRPNFLNLLSPLPSV
stoichiometry N (SEC): 2

Binder: B6
binding result [2]: binds

More lines, now with the values ahead:

binding result [1]: binds | binding result [2]: binds
B3: Tom5 (natural protein, S. cerevisiae, UniProt P80967 1-50, looked up)
chain: MFGLPQQEVSEEEKRAHQEQTEKTLKQAAYVAAFLWVSPMIWHLVKKQWK

binding result [2]: binds
B4: Tom7 (natural protein, S. cerevisiae, UniProt P53507 1-60, looked up)
chain: MSFLPSFILSDESKERISKILTLTHNVAHYGWIPFVLYLGWAHTSNRPNFLNLLSPLPSV

binding result [3]: binds
B5: Tom6 (natural protein, S. cerevisiae, UniProt P33448 1-61, looked up)
chain: MDGMFAMPGAAAGAASPQQPKSRFQAFKESPLYTIALNGAFFVAGVAFIQSPLMDMLAPQL
